Reference: PMC8660775
One block for each molecule: values may come before it.

Biological target: T1, Adiponectin receptor 1 (ADIPOR1), endogenous in iPSC-derived RPE (human (endogenous in iPSC-derived RPE)) (UniProt Q96A54)
T1 sequence: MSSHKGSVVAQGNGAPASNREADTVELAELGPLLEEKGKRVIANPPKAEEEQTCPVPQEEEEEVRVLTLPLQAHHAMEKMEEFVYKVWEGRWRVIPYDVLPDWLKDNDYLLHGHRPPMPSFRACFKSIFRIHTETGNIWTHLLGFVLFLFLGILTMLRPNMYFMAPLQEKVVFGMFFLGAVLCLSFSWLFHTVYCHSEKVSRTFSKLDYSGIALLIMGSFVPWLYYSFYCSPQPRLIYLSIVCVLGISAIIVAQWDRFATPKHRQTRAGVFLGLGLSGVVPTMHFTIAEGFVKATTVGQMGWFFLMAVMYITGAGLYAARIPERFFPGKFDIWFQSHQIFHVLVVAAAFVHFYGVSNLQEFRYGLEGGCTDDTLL

pAMPK (pT172) levels by ELISA in healthy-iRPE in serum-deprived medium, 0.2 µg/mL gCTRP5 for 30 min: 20 % decrease
Molecule: recombinant CTRP5 globular domain (domain or fragment)

pAMPK (pT172) levels by ELISA in healthy-iRPE in serum-free medium, recombinant full-length CTRP5 at 0.2, 2 and 25 µg/mL: 50 % reduction
B1: recombinant CTRP5 full length (ligand)
chain: SPPLDDNKIPSLCPGHPGLPGTPGHHGSQGLPGRDGRDGRDGAPGAPGEKGEGGRPGLPGPRGDPGPRGEAGPAGPTGPAGECSVPPRSAFSAKRSESRVPPPSDAPLPFDRVLVNEQGHYDAVTGKFTCQVPGVYYFAVHATVYRASLQFDLVKNGESIASFFQFFGGWPKPASLSGGAMVRLEPEDQVWVQVGVGDYIGIYASIKTDSTFSGFLVYSDWHSSPVFA
